Tests used:
Akt [1] = assay: Western blot of Akt phosphorylation in murine osteoblasts; type: cell-based
Experimental: (§1) GST-RANKL-induced activation of MAP kinases is prolonged in murine osteoblasts. Primary osteoblasts were isolated from neonatal murine calvaria by sequential enzymatic digestion. Briefly, calvaria were minced and incubated at room temperature for 20 minutes with gentle shaking in an enzymatic solution containing 0.1% collagenase, 0.05% trypsin, and 4 mM NA2EDTA in calcium- and magnesium-free phosphate buffered saline (PBS). This procedure was repeated to yield a total of six digests. The cells isolated from the last four to six digests were cultured in MEM containing 15% FBS, 50 μM ascorbic acid, and 10 mM β-glycerophosphate. Cells were maintained at 37° C. in a humidified atmosphere containing 6% C02, with daily replenishment of media and cytokines.
(§2) Following treatment with GST-RANKL at the indicated times and dosages, cells were lysed in RIPA buffer containing 10 mM Tris-HCl pH 7.4, 150 mM NaCl, 1% Nonidet P-40, 0.2% sodium deoxycholate, and 1 mM EDTA, with 1 mM Na3PO4, 1 mM NaF, and 1×protease inhibitor cocktail added immediately prior to use. Protein concentration was quantitated and standardized by Micro BCA Protein Assay (Pierce). […] Levels of total and phosphorylated ERK, JNK, p38, Akt, and IkBα were determined using primary and secondary antibodies according to the manufacturer's established protocols, with conventional chemiluminiscent detection. […]

[2] = tested on: Primary calvarial osteoblasts; assay: Alkaline phosphatase (AP) activity in osteoblasts following GST-RANKL exposure; type: cell-based; conditions: 50 ng/ml
Experimental: AP activity following RANKL exposure in osteoblasts. Primary calvarial osteoblasts were cultured in MEM containing 15% FBS, 50 μM ascorbic acid, and 10 mM β-glycerophosphate. Cells were maintained at 37° C., with daily replenishment of media and cytokines. Osteoblast alkaline phosphatase (AP) activity, a direct measure of osteoblast differentiation and function, was quantitated by addition of a calorimetric substrate, 5.5 mM p-nitrophenyl phosphate. The cells were then exposed to GST-RANKL, administered in different regimens. Pulsatile exposure to 50 ng/ml GST-RANKL was provided as 1, 3, 6, 8, or 24 hours of total exposure per 48-hour treatment window. After 4 such 48-hour treatments, AP activity was quantitated (±S.D.) and normalized to total protein levels.

[3] = tested on: Neo-natal mouse calvariae; assay: Ex vivo stimulation of bone formation in whole calvarial organ culture; type: cell-based
Experimental: One commonly used assay is a neonatal mouse calvaria assay. Briefly, four days after birth, the front and parietal bones of ICR Swiss white mouse pups are removed by microdissection and split along the sagittal suture. The bones are then incubated in a specified medium, wherein the medium contains either test or control compounds. Following the incubation, the bones are removed from the media, and fixed in 10% buffered formalin for 24-48 hours, decalcified in 14% EDTA for 1 week, processed through graded alcohols, and embedded in paraffin wax. Three micron sections of the calvaria are prepared and assessed using histomorphometric analysis of bone formation or bone resorption. Bone changes are measured on sections cut 200 microns apart. […]
Ex vivo stimulation of bone formation in whole calvarial organ culture. […] Purified GST-RANKL was then assayed for endotoxin contamination by limulus amoebocyte lysate assay, and quantitated for bioactivity by an in vitro osteoclastogenesis readout.
Test compositions were administered for-a period of 12 hours only at the initiation of the culture (1×) or once at initiation and once three days later, again for a duration of 12 hours (2×). After seven days, calvarial thickness was determined histomorphometrically and compared among the various control and experimental groups to assess bone formation. […]

IkBα = assay: Western blot of IkBα phosphorylation in murine osteoblasts; type: cell-based
Experimental: as §1, §2

JNK [4] = assay: Western blot of JNK phosphorylation in murine osteoclast precursors; type: cell-based; conditions: after GST-RANKL stimulation
Experimental: (§3) GST-RANKL rapidly activates MAP kinases in murine osteoclast precursors. Wild type C57BL/6 mice were purchased from Harlan Industries (Indianapolis, Ind.). For the isolation of osteoclast precursors, bone marrow macrophages (BMMs) were isolated from whole bone marrow of four to six week old mice and incubated in tissue culture dishes at 37° C. in 5% CO2. After 24 hours in culture, the non-adherent cells were collected and layered on a Ficoll Hypaque gradient and the cells at the gradient interface were collected. Cells were replated at 65,000/cm^2 in α-minimal essential medium, supplemented with 10% heat inactivated fetal bovine serum, at 37° C. in 5% CO2 in the presence of recombinant mouse M-CSF (10 ng.ml). Cells were treated with GST-RANKL on day 4 or 5. In the experiments addressing the activation of Akt, the cells were cultured in serum and M-CSF free medium for 24 hours prior to GST-RANKL stimulation.
(§4) Immunoblotting (Western blotting) of osteoclast precursors was performed according to the following instructions. Cytokine-treated or control monolayers of BMMs were washed twice with ice-cold PBS. Cells were lysed in the buffer containing 20 mM Tris (pH 7.5),150 mM NaCl, 1 mM EDTA, 1 mM EGTA, 1% Triton X-100, 2.5 mM sodium pyrophoshate, 1 mM β-glycerophosphate, 1 mM Na3PO4, 1 mM NaF, and 1×protease inhibitor cocktail. […]

ERK1/2 = assay: Western blot of ERK1/2 activation in murine osteoblast precursors; type: cell-based
Experimental: as §1
(§5) Following treatment with GST-RANKL at the indicated times and dosages, cells were lysed in RIPA buffer containing 10 mM Tris-HCl pH 7.4, 150 mM NaCl, 1% Nonidet P-40, 0.2% sodium deoxycholate, and 1 mM EDTA, with 1 mM Na3PO4, 1 mM NaF, and 1×protease inhibitor cocktail added immediately prior to use. Protein concentration was quantitated and standardized by Micro BCA Protein Assay (Pierce). Lysates were denatured by heat in Laemmli buffer, resolved by SDS-PAGE, and transferred onto nitrocellulose. Levels of total and phosphorylated ERK, JNK, p38, Akt, and IkBα were determined using primary and secondary antibodies according to the manufacturer's established protocols, with conventional chemiluminiscent detection. Membranes were stripped between hybridizations in PBS containing […] β-mercaptoethanol and 2% SDS.
GST-RANKL-induced ERk1/2 activation is prolonged in murine osteoblast precursors. Osteoblast precursors were isolated and maintained according to the procedures set forth in Example 5. The immunoblotting was performed in the same manner as immunoblotting in Example 3.

ERK [5] = assay: Western blot of ERK phosphorylation in murine osteoblasts; type: cell-based
Experimental: as §1, §5

Mice = assay: In vivo stimulation of bone formation in mice, intramedullary femur injection, DEXA; design: species or system mouse; conditions: 100 micrograms intramedullary once a day for nine days; versus GST control; day 9
Experimental: In vivo stimulation of bone formation in mice results in 24% increase. Mice were anesthetized with a Ketamine/Xylazine cocktail (10 mg/kg ketamine and 10 mg/kg xylazine IP) and placed in left lateral recumbancy. The major trochanter and lateral femoral condyle of the right femur were identified and the intramedullary injection site was equidistant between these landmarks. Injections of 100 micrograms GST (control) or 100 micrograms GST-RANKL were made once a day for nine days with 29 gauge needles on tuberculin syringes.
On day 9 the mice were re-anesthetized with Ketamine/Xylazine cocktail (10 mg/kg ketamine and 10 mg/kg xylazine IP) and dual energy x-ray absorptiometry (DEXA, Piximus) analysis was done on each animal. Plain radiographs were taken immediately following DEXA analysis (Faxitron, KV 0.15, time=20 sec). Animals were sacrificed by CO2 asphyxiation and both femurs harvested for histological analysis. The femurs were fixed in 10% buffered formalin for 48 hours and decalcified for 1 week. The results, showing a 24% increase in bone density of the femur of GST-RANKL treated mice versus the control, are shown in FIG. 10.

Akt [6] = assay: Western blot of Akt phosphorylation in murine osteoclast precursors; type: cell-based
Experimental: as §3, §4

ERK [7] = assay: Western blot of ERK phosphorylation in murine osteoclast precursors; type: cell-based
Experimental: as §3
(§6) Immunoblotting (Western blotting) of osteoclast precursors was performed according to the following instructions. Cytokine-treated or control monolayers of BMMs were washed twice with ice-cold PBS. Cells were lysed in the buffer containing 20 mM Tris (pH 7.5),150 mM NaCl, 1 mM EDTA, 1 mM EGTA, 1% Triton X-100, 2.5 mM sodium pyrophoshate, 1 mM β-glycerophosphate, 1 mM Na3PO4, 1 mM NaF, and 1×protease inhibitor cocktail. Fifty μg of cell lysates were boiled in the presence of SDS sample buffer (0.5 M Tris-HCl, pH 6.8, 10% w/v SDS, 10% glycerol, 0.05% w/v bromphenol blue) for 5 minutes and separated on SDS-PAGE, using 8% gels. Proteins were transferred to nitrocellulose membranes using a semi-dry blotter (Bio-Rad, Richmond, Calif.) and incubated in blocking solution (5% non-fat dry milk in tris-buffered saline containing 0.1% Tween 20) for 1 hour to reduce nonspecific binding. Membranes were then exposed to primary antibodies overnight at 4° C., washed three times, and incubated with secondary goat anti-mouse or rabbit IgG horseradish peroxidase-conjugated antibody for 1 hour. […]

JNK [8] = assay: Western blot of JNK phosphorylation in murine osteoblasts; type: cell-based
Experimental: as §1, §2

c-Fos = assay: Western blot of c-Fos activation following GST-RANKL treatment of cells; type: cell-based; conditions: osteoblasts and osteoblast precursor cells; FIG. 9, 0-120 minutes
Experimental: Time points at which activation was measured were 0, 30, 60 and 120 minutes following exposure of cells to GST-RANKL. B-actin was used as a control.

Mice, C3H/HeN = assay: In vivo stimulation of bone formation in mice, subcutaneous administration; design: species or system mouse; conditions: 100 micrograms subcutaneously once a day for nine days, vs GST control
Experimental: In vivo stimulation of bone formation in mice. Mice, C3H/HeN (Harlan, Indianapolis, Ind.) were administered 100 micrograms GST (control) or 100 micrograms GST-RANKL as obtained in Example 1, subcutaneously, once a day for nine days. […] Upper panels illustrate metaphyseal bone, which is shown at higher magnification in lower panels. […] Dual-energy X-ray absorptiometry (DEXA) analysis of GST or GST-RANKL administered mice was also conducted using standard procedures.

p38 [9] = assay: Western blot of p38 phosphorylation in murine osteoblasts; type: cell-based
Experimental: as §1, §2

p38 [10] = assay: Western blot of p38 phosphorylation in murine osteoclast precursors; type: cell-based
Experimental: as §3, §6

[11] = after RANK/GST-RANKL interaction

B1: GST-RANKL: fusion protein of glutathione S-transferase (GST) and murine RANKL residues 158-316, expressed in Escherichia coli, affinity purified (protein)
chain: KPEAQPFAHLTINAASIPSGSHKVTLSSWYHDRGWAKISNMTLSNGKLRVNQDGFYYLYANICFRHHETSGSVPTDYLQLMVYVVKTSIKIPSSHNLMKGGSTKNWSGNSEFHFYSINVGGFFKLRAGEEISIQVSNPSLLDPDQDATYFGAFKVQDID
modifications: left off: a dimerising Fc or GST
Akt [1]
  Akt activation at the time of GST-RANKL stimulation: detectable
Akt [1]; after stimulation
  duration for which Akt activation could be detected: at least 60 minutes
[2]; 1, 3, 6, 8 or 24 hours exposure per 48-hour window, 4 treatments
  exposure window giving the maximum anabolic effect (AP activity): 8 h
[2]; administered in an intermittent fashion
  AP activity: increase
[3]; 100 ng/ml, after seven days
  calvarial thickness at the highest dose tested: doubled
[3]; administered 1× or 2× for 12 hours, histomorphometry after seven days
  calvarial thickness: dose-dependent increase
IkBα
  time until which IkBα phosphorylation increased (end of the assay): 60 min
IkBα; after stimulation
  time at which IkBα phosphorylation was detected: 10 min
JNK [4]
  time at which JNK was phosphorylated: 15 min
  time by which phosphorylated JNK was undetectable: ≤ 30 min
ERK1/2; osteoblast precursor cells, GST-RANKL stimulation
  time of peak kinase activation as stated in the description: 5 to 10 min
ERK1/2; osteoblast precursors
  time up to which ERK activation increased (length of the assay): 60 min
ERK1/2; osteoblast precursors, after GST-RANKL stimulation
  time at which ERK activation was first detected: 10 min
ERK [5]; after GST-RANKL stimulation
  time at which ERK activation could still be detected: 60 min
  time by which both ERKs were activated: ≤ 5 min
ERK [5]; [11]
  time of peak ERK activation: 10 min
Mice
  increase in bone density of the femur (DEXA): 24%
Akt [6]; 0 minutes
  Akt phosphorylation at the time of GST-RANKL stimulation: detectable phosphorylation
Akt [6]; after GST-RANKL stimulation
  time of peak Akt activation: 15 min
ERK [7]; after GST-RANKL stimulation
  time at which ERK phosphorylation was detected: 5 min
ERK [7]; [11]
  time of peak ERK phosphorylation: 10 min
ERK [7]; after the interaction
  time at which ERK phosphorylation was undetectable: 30 min
JNK [8]
  JNK activation at the time of GST-RANKL stimulation: detectable
JNK [8]; after stimulation
  duration for which JNK activation could be detected: at least 60 minutes
c-Fos
  activation of c-Fos: prolonged activation
Mice, C3H/HeN; tibial metaphyses
  bone mineral density (DEXA): significant increase
Mice, C3H/HeN
  bone mass (histological examination of tibia): marked increase
  cortical thickness: massive increase
  numbers of activated osteoblasts (histological examination of tibia): net increase
p38 [9]
  p38 activation at the time of GST-RANKL stimulation: detectable
p38 [9]; after stimulation
  duration for which p38 activation could be detected: at least 60 minutes
p38 [10]; after GST-RANKL stimulation
  time at which p38 phosphorylation was detected: 5 min
p38 [10]; [11]
  time of peak p38 phosphorylation: 10 min
p38 [10]; after the interaction
  time at which p38 phosphorylation was undetectable: 30 min
